The data set in a line: yeast display, Sf9 membrane polyspecificity reagent, FACS + sequencing; frameworks hold sequencing errors. Summed up: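 Galactose induction of a Saccharomyces cerevisiae BJ5465 synthetic nanobody display library ran 36–48 hours. The cells were then stained for 1 hour at 4 °C with 10% biotinylated, detergent-solubilized Sf9 membrane reagent, pulled down on streptavidin microbeads and FACS-sorted into low and high (top ~1%) gates on expression and reagent-binding fluorescence. Labels for polyreactivity follow the gate of origin.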
For the sequence “QVQLEESGGGLVQAGGSLRLSCDASGSTLLYYAMGWYRPAPGKERELVAAISWRGGSTYYADSVKGRFTISRDNAKNTVYLQMNSLKPEDTAVYYCAARSLRLVGPYYYWGEGTQVTVSS”, the “polyreactivity (PSR sort gate)” value was “high polyreactivity”.
In the case of “QVQLVESAGGLVQAGGSLRLSCAASGRIFYYNAMGWYRQAPGKERELVAGITSRGGSTYADSVKGRFTISRDNAKNTVYLQMNSLKPEDTAVYYCAAVYRLWGKDYDYWGQGTQVTVSS” it was “high polyreactivity”; in that of “QVQLVESGGGLVQAGGSLRLSCAASGSTFRPNAMGWYRQAPGKERELVATIRTSGGTTYYADSVKGRFTISRDNAKNTVYLQMNSLKPEDTAVYYCAATKFGSSYDYWGQGTQVTVSS”, “low polyreactivity”.
With “QVQLVESGGGLVQAGGSLRLSCAASGSIFYANAMGWYRQAPRKERELVAAISWSGGRTYYADSVKGRFTISRDNAKNTVYLQMISLKPEDTAVYFCAAVTRGLRFVYWGQGTQVTVSS”, the “polyreactivity (PSR sort gate)” value is on record as “high polyreactivity”.
In the case of “QVQLVESGGGLVQAGGSLRLSCAASGSTFTYYAMGWYRQAPGKERELVAAISNSGTSTYYADSVKGRFTISRDNAKNTVYLQMNSLKPEDTAVYYCNAYSDLFGSYTDLGEYDYWGQGTQVTVSS” it was “low polyreactivity”; in that of “QVQLVESGGGLVQAGGSLRLSCAASGRTFIYYAMGWYRQAPGKERELVAVITGGGSTNYADSVKGRFTISRDNAKNTVYLQMNSLKPEDTAVYYCNRDYDASHTSREPLVGYDYWGQGTQVTVSS”, “low polyreactivity”; in that of “QVQLVESGGGLVQAGGSLRLSCAASGRTLGGYTMGWYRQAPGKERELVAAITTGGSTNYADSVKGRFTISRDNAKNTVYLQMKSLIPEDTAVYYCATDLVFDKRYWYDFWGEGTQVTVSS”, “low polyreactivity”.
Then “QVQLVESGGGLVQAGGSLRLSCAASGSNLYPYAMGWYRQAPGKERELVAAISRGGSTNYADSVKGRYTIARDNAKNTVYLQMNSLKPDDTAVYYCATAYTRFSQRYEYYVIYWQNDYWGQGTQVTVSS”, with “low polyreactivity”; and “QVQLVESGGGLVQAGGSLRLSCAASGRIFWVNAMGWYIQAPGKERELVAVISRGGSTTYADSVKGRFTISRDNEKNTVYLQMNSLKPEDTAVYYCAADAYSHAFLYYGYDYWGQGTQVTVSS”, with “low polyreactivity”; and “QVQLVESGGGLVQAGGSLRLSCAASGFTFSTNAMGWYRPAPGKERELVAAISYGGVSTYYADSVKGRFTISRDNAKNTVYLQMNSLKPEDTAVYYCAAGRITTRLYGDPFDYWGQGTQVTVSS”, with “low polyreactivity”.
In the case of “QFQLVESGGGIVQAGGRLRLSCAASGSTFFGYAMGWFRQAPGKVRELVAAISSGGSTYYADSVKGRFTISRDNAKNTVYVQMNSLKPEDTAVYYCAAYSYPKKYGYWGQGTQVTVSL” it was “high polyreactivity”; in that of “QGQLVESGVGLVQAGGSLSLSCAASGSILNNYAMAWYIQAPGKERELVAAISSSGGTNYADSVKGRFTISRDNAKNTVYLQMNSLKPEDTAVYYCNADVLDGGYDYWGQGTQVTVSS”, “low polyreactivity”.
Take “QVQLVESGGGLVQAGGSLRLSCAASGSIFYYYAMGWYRQAPGKERELVASISRSGGSTFYADSVKGRFTISRDNAKNTVYLQMNSLKPEDTAVYYCATGWYYSPYNYWGQGTQVTVSS”: the “polyreactivity (PSR sort gate)” value was “high polyreactivity”.
Then “QVQLVESGGGLVQAGGSLRLSCAASGFTFYRNTMGWYRQAPGKERELVAAITQRGGSTYYADSVKGRFTISRDNAKNTVYLQMNSLKPEDTAVYYCNRDVKVLYASSHSPYGYDHWGQGTQVTVSS”, with “low polyreactivity”.
Regarding “QVQLQESGGGLMQAGGNLRLSCAASGYISTHYDMDWSRQAPGKERELVARIDDGAITNYADSVKGRFTISRDNATNTVYLQMNSLKPEDTAVYYCAVYSGDDYYHDYWGQGTQVTVSS”, the “polyreactivity (PSR sort gate)” value is “low polyreactivity”.
Then “QVQLVESGGGLVQAGGSLRLSCAASGSTFITYAMGRYRQAPGKERELVAAIRWSGGGTYYADSVKGRFTISRDNAKNTVYLQMNSLKPEDTAVYYCAADHFNYTTGRDYWGQGTQVTVSS”, with “low polyreactivity”; and “QVQLVESGGGLVQAGGSLRLSCAASGFILSGYAMGWYRQAPGKERELVAVISGGGRTYYADSVKGRFTISRDNAKNTVYLQMNSLKPEDTAVYYCARPRTRQGDYWGQGTQVTVSS”, with “high polyreactivity”; and “QVQLVESGGGLVQAGGSLRLSCAPSGRTFGGYVRGRYRQAPGKERELVATITYSGGSTHYADSVKGRFTISRDNAKITVYLQMNSLKPEDTAVYYCARRRSYRYPSEYNYWGQGTQVTVSS”, with “high polyreactivity”.
In the case of “QVQLVESGGGLVQAGGSLRLSCAASGSPFFVYAMGWYRQAPGTERELVAAISSRGSTYYADSVKGRFTIARDTAKNTVYLQMNSLKPEDTAVYYCAAEYTVSYLRMDYWGQGTQVTVSS” it was “low polyreactivity”.
Then “QVQLVESGGGLVQAGGSLRLSCAASGITFSFYAMGWYRQAPGKERELVAAISWNGDSTYYADSVKGRFTISRDNAKNTVYLQMNSLKPEDTAVYYCNAEFVAWYYYEDQDGDYWGQGTQVTVSS”, with “high polyreactivity”; and “QVQLVESGGGLVQAGGSLRLSCAASGSTFGANSMGWYRQAPGKERELVAAITYSSGSTRYADSVKGRFTISRDNAKTTVYLQMNILKPEDTAVYYCAARRTNYFKLGYWGQGTQVTVSS”, with “high polyreactivity”.
Turning to “QVQLVESGGGLVQAGGSLRLSCAASGSIFGDNTRGWYRQAPGKERELVAAISWRGGSTYYADSVKGRFTISRDNSKNTVYLQMNSLKPEDTAVYYCIGGPGGYDYWGQGTQVTVSS”, the “polyreactivity (PSR sort gate)” value was “low polyreactivity”.
As to “QVQLVESGGGLVQSGGSLRLSCAASGRTFYDNVMGWYRQAPGKERELVAAISSGGSTNYADSVKGRFTISRDNAKNTVYLQMNSLKPEDTAFYYCATIGGGGWAYEYWGQGTQVTVSS”, the “polyreactivity (PSR sort gate)” value is reported as “low polyreactivity”.
For “QVQLVESGGGLVQAGGSLRLSCAASGSIFRGNAMGWYRQAPGKERELVASISYSGGSTYYADSVKGRFTISRDNAKNTVYLQMNSLKPEDTAVYYCAADESVAYPYSGYQYYRHIYDYWGQGTQVTVSS”, the “polyreactivity (PSR sort gate)” value is given as “low polyreactivity”.
In the case of “QVQLVESGGGLVQAGGSLRLSCAASGITFTLYAMGWYRQAPGKERELVASISWSGGSTYYADSVKGRFTISRDIAKNTVYLQMNSLKPEDTAVYYCNAVYARKYYYSHGYDYWGQGTQVTVSS” it was “high polyreactivity”.
Then “QVQLVESGGGLVQAGGSLRLSCAASGSIFFYYAMGWYRQAPGKERELVATINWSGGSTYYADSVKGRFTISRDNAKNTVYLQMNSLKPEDTAVYYCAAKDITLPGTMDSWGQGTQVTVSS”, with “low polyreactivity”.
On to “QVQLVESGGGLVQAGGSLRLSCAASGRIFSYNAMGWYRQAPGKEREFVAAIDWRAGSTYYADSVKGRFTISRDNAKKTVYLQMNSLKPEDTAVYYCAVEFGAYPFLYYYWGQGTQVTVSS”, for which the “polyreactivity (PSR sort gate)” value was “high polyreactivity”.
In the case of “QVQLVESGGGLVQAGGSLRLSCAASGRIFTGNALGWYRPAPGKERELVAVINRTGGSTYYADSVKGRFTISRDNAKNTVYLQMNSLKPEETAVYSCAAYVPWGWRYGYNYWGQGTQVTVSS” it was “high polyreactivity”; in that of “QVQLVESGGGLVQAGGSLRLSCAASGSTFAVYAMGWYRPAPGKERELVAGISSRGGRTYYADSVKGRFTISRDNAKNTVYLQMNSLKPEDTAVYYCAARFKGNPDRYGYWGQGTQVTVSS”, “high polyreactivity”.
With “QVQLVESGGGLVQAGGSLRLSCAASGRTFVVYAMGWYRQAPGKERELVAAISWSGGLTYYADSVKGRFTISRDNAKNTVYLQLNSVKPEDTAVYYCAAEVYLYKYVYYYWGQGTQVTVSS”, the “polyreactivity (PSR sort gate)” value was “high polyreactivity”.
For the sequence “QVQLVESGGGLVQAGGSLRLSCAPSGFIFTRYAMGWYRQAPGKERELVAAISWSGGSTYYADSVKGRFTISRDNAKNTVYLQMNSLKPEDTAVYYCAADGSDSYDYWGQGTQVTVSS”, the “polyreactivity (PSR sort gate)” value is listed as “low polyreactivity”.
Take “QVQLVESGGGLVQAGGSLRLSCAASVIIFSYNAMGWYRQAPGKERELVAAISYSGGSTYYADSVKGRFTISRDNAKNTVYLQMNSLKPEDTAVYYCAAEKYLGELDYWGQGTQVTVSS”: the “polyreactivity (PSR sort gate)” value is on record as “low polyreactivity”.
As for “QVQLVESGGGLVQAGGSLRLSCAASGSTQYPYAMGWYRQAPGKERELDAAISWSGGSTYYADSVKGRFTISRDPAQNTVYLQMNSLNPEDTAVYYCAAVYHFQYGAYDYWGQGTQVTVSS”, the “polyreactivity (PSR sort gate)” value is given as “high polyreactivity”.
Then “QVQLVESGGGLVQAGGSLRLSCAASGSTFVWYAMGWYRQAPGKESELVAVIDWSGGSTSYADSVKGRFTISRDNAKNTVYLQMNSLKPEDTAVYYCAAQLGVISRGNYWGQGTQVTVSS”, with “low polyreactivity”.
For the sequence “QVQLVESGGGLVQAGGSLRLSCAASGIIFDGNAMGWYRQAPGKERELVASITSDSSTNYADSVKGRFTISRDNAKNTVYLQMNSLKPEDTAVYYCAADHWIAPRRDYWGQGTQVTVSS”, the “polyreactivity (PSR sort gate)” value was “low polyreactivity”.
As to “QVQLVESGGGLVQAGGSLRLRCAASGRTFYGYAMGWYRQAPGKEREFVAAITYTGGRTYYADSVKGRFTISRDNAKNTVYLQMNSLKPEDTAVYYCNAYYYYVNQGRFEYGYWGQGTQVTVSS”, the “polyreactivity (PSR sort gate)” value was “high polyreactivity”.
In the case of “QVQLVESGGGLVQAGGSLRLSCAASGSTFFVYAMGWYRQAPGNESEFVAAISKSGGSTYYADSEKGRFTISRDNAKNTVYLQMNSLKPEDTAVYYCAKYSGVNSIVGNDYWGQGTQVTVSS” it was “high polyreactivity”; in that of “QVQLVESGGGLVQAGGSLRLSCAASGFTFRVYAMGWYRQAPGKERELVAAISVRGDSTYYADSVKGRFTISRDNAKNTVYLQMNSLKPEDTAVYYCNAALLGKQYYSNPNYDYWGQGTQVTVSS”, “high polyreactivity”.
Regarding “QVQLVESGGGLVQAGGSLRLSCAASGSIFYYAMGWYREAPGKERELVAAISRSGGSTYYADSVKGRFTISRDNAKNTVYLQMNSLKPEDTAVYYCAKGYRGYSYGYWRQGTQVTVSS”, the “polyreactivity (PSR sort gate)” value is listed as “high polyreactivity”.
As for “QDQLVESGGGLGQAGGSLRLSCAASGSTFNNYAMGWYRQAPGKERELVAVITKRGGSTYYADSVKGRFTISRDTAKNTVHLQMNSLKPEDTAVYYCPASSLYDGYWGQGTQVTVSS”, the “polyreactivity (PSR sort gate)” value is recorded as “high polyreactivity”.
Then “QVQLVESGAGLVQAGGSLRLSCAASGLTFVFYAMGWYRQAPGKERELVAAISSSGGSTNYADSVKGRFTISRDNAKNTVYLQMNSLKPEDTAVYYCAAETVSWYRYYYRGQGTQVTVSS”, with “high polyreactivity”.

(Values after the nanobody polyreactivity screen of Harvey et al. (2022).)
